# Laboratory results published in patent US20170145090A1.
# Target: Human OSM (in-house, OSMN1-1) (human) (UniProt P13725)
# Test: cell-based or functional assay
# Human OSM (in-house, OSMN1-1) (human), sequence (P13725 26-221 limits assumed): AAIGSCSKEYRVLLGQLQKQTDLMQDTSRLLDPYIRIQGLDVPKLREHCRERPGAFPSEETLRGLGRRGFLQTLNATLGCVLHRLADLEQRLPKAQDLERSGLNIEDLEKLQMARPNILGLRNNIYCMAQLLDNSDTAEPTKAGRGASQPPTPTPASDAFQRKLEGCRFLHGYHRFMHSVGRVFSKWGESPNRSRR
substance,measurement,value
MAB295 (R&D Systems) (antibody),"pSTAT3 inhibition EC50 (ng/ml), A375 cells, 5 ng/ml hOSM",72.1 ng/ml
